± gives the uncertainty stated by the source.
Assay: protein stability index of a GFP-peptide fusion (yeast GPS) (PSI 1-4); higher = more stable; sorted into four equal gates, so the index is relative within each strain
How it was run: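 Sequencing reads from sorted gates were used to score each peptide. The library consisted of tiled 17-residue yeast protein peptides fused downstream of GFP on a Cherry-expressing plasmid, pooled and carried in yeast. Mid-log cultures in leucine-free medium were split into four equal gates by GFP/Cherry ratio, and each gate's plasmids were PCR-amplified and Illumina-sequenced. The protein stability index adds up, over all gates, the read frequency multiplied by the gate number.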

| Sequence | protein stability index (doa10∆) | protein stability index (pdr5∆) | protein stability index (san1∆) | protein stability index (ubr1∆) |
| --- | --- | --- | --- | --- |
| IDIPLDEQAFYNKDKAE [RPC37] | 3.27 ± 0.18 | 3.38 ± 0.18 | 2.85 ± 0.24 | 3.26 ± 0.14 |
| VAIGNTYGFLTPNLWAE [RPS2] | 2.26 ± 0.073 | 2.49 ± 0.054 | 2.36 ± 0.089 | 2.43 ± 0.04 |
| NTLEFIIEQLSIAAERY [YCG1] | 2.29 ± 0.052 | 2.62 ± 0.072 | 2.16 ± 0.066 | 2.39 ± 0.036 |
| EISASESKFILEALRQN [RRP45] | 2.94 ± 0.096 | 2.98 ± 0.12 | 2.88 ± 0.094 | 2.81 ± 0.074 |
| RQKARTDAHTPLARNYI [RPR2] | 2.63 ± 0.054 | 2.52 ± 0.058 | 2.78 ± 0.049 | 2.86 ± 0.042 |
| NVLKAPFIKSESKPFSS [SIR4] | 2.65 ± 0.068 | 2.81 ± 0.088 | 2.6 ± 0.064 | 3.03 ± 0.059 |
| LSLTTVPCDRIEKSRLF [SNF6] | 2.51 ± 0.065 | 2.64 ± 0.076 | 2.66 ± 0.053 | 2.29 ± 0.044 |
| LVILKPDLNIDRNNSTN [SIN4] | 2.73 ± 0.057 | 2.23 ± 0.064 | 2.56 ± 0.065 | 2.67 ± 0.041 |
| LNTVLIADLDTEAEETS [RRP43] | 3.11 ± 0.08 | 2.87 ± 0.065 | 3.04 ± 0.047 | 3.21 ± 0.051 |
| DFKAKYCDSMGRPQRKM [RPB5] | 3.44 ± 0.24 | 3.18 ± 0.15 | 3.22 ± 0.17 | 3.32 ± 0.1 |
| SEISSLKGKINNEMKSL [SMC1] | 3.09 ± 0.28 | – | 2.65 ± 0.27 | 3.18 ± 0.18 |
| IYNKMIGVLNNSSESDE [RPN13] | 2.74 ± 0.14 | 3.12 ± 0.12 | 2.94 ± 0.06 | 2.94 ± 0.067 |
| AKGFYHTPMVNFESISA [SRB8] | 2.16 ± 0.06 | 1.84 ± 0.05 | 1.52 ± 0.11 | 1.93 ± 0.05 |
| TKSMVKIAEQYSKRIEE [RPN11] | 2.32 ± 0.075 | 1.94 ± 0.052 | 2.03 ± 0.1 | 2.28 ± 0.067 |
| RRLAFLGIKVAELTGDS [BRR2] | – | 2.24 ± 0.19 | 2.71 ± 0.16 | – |
| LFQRQKLHEFYLLISKE [IRR1] | 2.69 ± 0.12 | 2.97 ± 0.076 | 2.63 ± 0.061 | 2.87 ± 0.12 |
| SNIELAFSSVEHIIRDV [COB] | 3 ± 0.087 | 2.78 ± 0.1 | 2.79 ± 0.079 | 2.73 ± 0.11 |
| LKTFHFAGVASMNVTLG [RPO31] | 2.17 ± 0.081 | 2.25 ± 0.048 | 2.34 ± 0.093 | 1.98 ± 0.055 |
| DSTQLLETILEEFRNLA [SSN2] | 2.69 ± 0.076 | 3.18 ± 0.065 | 2.85 ± 0.055 | 3.2 ± 0.054 |
| ISDIPYVISLSYTDAQD [YMR129W/POM152] | 2.16 ± 0.066 | 2.41 ± 0.068 | 2.5 ± 0.061 | 2.64 ± 0.06 |
| DTSDIIVDPTAEQLKIS [RRP46] | 1.79 ± 0.091 | 2.19 ± 0.097 | 2.73 ± 0.14 | 2.12 ± 0.092 |
| PTVDEQRQYKVQLLLHI [SNF11] | 1.8 ± 0.12 | 1.95 ± 0.082 | 1.82 ± 0.12 | 1.89 ± 0.065 |
| AIIVAGVQSNGDQFLRY [PRE4] | 2.74 ± 0.095 | 2.83 ± 0.073 | 2.4 ± 0.13 | 2.28 ± 0.061 |
| ERLMTWKFKSLIEILRL [RRI2] | 2.11 ± 0.054 | 2.01 ± 0.044 | 1.68 ± 0.088 | 2.31 ± 0.032 |
| HKMSMMAHRVKVIPYST [RPO21] | 2.47 ± 0.065 | 2.64 ± 0.062 | 2.82 ± 0.079 | 2.44 ± 0.084 |
| SFLSGVKSLLSEEKIRD [SIR4] | 3.01 ± 0.088 | 3.11 ± 0.072 | 2.92 ± 0.063 | 2.92 ± 0.11 |
| SQVDPITLFVLVSVVEA [FAS2] | 1.44 ± 0.045 | 2.03 ± 0.069 | 2.48 ± 0.077 | 1.45 ± 0.072 |

| Sequence | protein stability index (doa10∆) | protein stability index (pdr5∆) | protein stability index (san1∆) | protein stability index (ubr1∆) |
| --- | --- | --- | --- | --- |
| DSPASNEDDLTVKLTEI [RPO31] | 2.94 ± 0.071 | 3.15 ± 0.068 | 2.97 ± 0.053 | 3.19 ± 0.056 |
| VFSESCSNESFASIPVS [SNU114] | 2.98 ± 0.061 | 3.29 ± 0.068 | 2.88 ± 0.062 | 3.12 ± 0.044 |
| RSLLQEAIETCKNFEKT [GAL11] | – | 3.14 ± 0.15 | 2.59 ± 0.19 | 3.09 ± 0.081 |
| KRTRLESLKNLNESRSQ [SMC3] | 2.53 ± 0.092 | 2.4 ± 0.075 | 2.61 ± 0.071 | 2.82 ± 0.13 |
| KSGTSHDAIFSIYKYIH [SNF12] | 2.51 ± 0.059 | 2.66 ± 0.054 | 2.34 ± 0.068 | 2.2 ± 0.046 |
| LYGPPGTGKTMLVKAVA [RPT3] | – | 1.17 ± 0.11 | 1.15 ± 0.21 | 1.37 ± 0.14 |
| SKKTSPKATSSAGAVFK [YOR098C/NUP1] | 2.7 ± 0.12 | 2.42 ± 0.086 | 2.54 ± 0.085 | 2.61 ± 0.046 |
| DEEAAGASTVMKTKTIN [PRP8] | 3.34 ± 0.089 | 3.12 ± 0.071 | 3.28 ± 0.063 | 3.19 ± 0.061 |
| GKEFEARNLIEDEDDGE [RPC53] | 3.46 ± 0.16 | 3.58 ± 0.14 | 3.41 ± 0.1 | 2.94 ± 0.14 |
| KDYEAKTKAMSLSIEEN [POP1] | 2.57 ± 0.13 | 2.55 ± 0.089 | 2.28 ± 0.082 | 2.95 ± 0.083 |
| DKYKLYPVRIPRLDTSK [YJR042W/NUP85] | 3.01 ± 0.075 | 2.9 ± 0.075 | 3.12 ± 0.059 | 3.24 ± 0.065 |
| EREIKRRKFDPSSSENV [UBP6] | 3.51 ± 0.078 | 3.37 ± 0.071 | 3.14 ± 0.065 | 3.33 ± 0.13 |
| NFETEWNLQTLAADDAF [RPB11] | 2.68 ± 0.16 | 2.83 ± 0.13 | – | 2.54 ± 0.13 |
| TVIRGNSIISLEALDAI [SMX2] | 2.79 ± 0.075 | 2.43 ± 0.09 | 2.15 ± 0.11 | 2.57 ± 0.055 |
| EAAKLLVDSLATFTSIE [RPN7] | 3.24 ± 0.18 | 3.1 ± 0.098 | 3.24 ± 0.096 | 2.68 ± 0.096 |
| PSQSEEQKGQMAKKEGT [MED4] | 3.21 ± 0.2 | 3 ± 0.22 | 3.07 ± 0.19 | – |
| FGNKPAGSTGFSFGQNN [YGR119C/NUP57] | 1.75 ± 0.089 | 1.77 ± 0.085 | 1.46 ± 0.15 | 1.29 ± 0.28 |
| VTAKLLGFTPGELRSYL [FAS1] | 2.91 ± 0.073 | 2.97 ± 0.11 | 2.89 ± 0.1 | 3.1 ± 0.093 |
| PSRRERRREQTTYSVDD [ISW2] | 2.65 ± 0.26 | 3 ± 0.062 | 3.22 ± 0.17 | 2.35 ± 0.14 |
| TPIAGRFTPGSFTNYIT [RPS0A] | 3.01 ± 0.11 | 2.99 ± 0.072 | 2.97 ± 0.082 | 3.16 ± 0.1 |
| FMRQNLEWNMANLLFKK [RPC82] | 2.82 ± 0.11 | 1.94 ± 0.055 | 2.49 ± 0.082 | 2.85 ± 0.063 |
| GFERLTVNEPQMSDKHA [SRB7] | 3.06 ± 0.12 | 3.36 ± 0.082 | 3.25 ± 0.14 | 3.16 ± 0.051 |
| ATDPVAAKPDNLANFSN [SWP82] | 3.27 ± 0.077 | 3.18 ± 0.084 | 3.21 ± 0.051 | 3.26 ± 0.057 |
| SLDDNSTSLEKQINSIK [YJL041W/NSP1] | 2.78 ± 0.079 | 3.08 ± 0.065 | 2.97 ± 0.045 | 2.96 ± 0.048 |
| NVRVGQAVETVGQAGRP [RPN1] | 2.4 ± 0.11 | 3.14 ± 0.092 | 3.19 ± 0.072 | 3.02 ± 0.1 |
| HVLVGDLIKFSAETLSE [FAS1] | 2.38 ± 0.1 | 2.78 ± 0.1 | 2.67 ± 0.1 | 2.79 ± 0.089 |
| KTRFKGSQFIVVSLKEG [SMC2] | 3.46 ± 0.12 | 3.16 ± 0.08 | 3.35 ± 0.069 | 3.34 ± 0.046 |
